For three molecules, EC50 and MCF results are on record in patent US20250388672A1.

For experiment [1], the target named is human CD3 expressed on HEK293H cells (human) (UniProt P20963). Briefly: flow cytometry on HEK293H cells expressing human CD3. Background: Flow cytometry measures light scatter and fluorescence of single cells or particles in a stream.
For experiment [2], the target named is human TCR(2IAN)/CD3 expressed on HEK293H cells (human) (UniProt P04234). Description: flow cytometry on HEK293H cells expressing human TCR(2IAN)/CD3.
Experiment [3] has as its target human TCR/CD3 complex on purified primary human T cells (human). Briefly: flow cytometry on primary human T cells.

Chain of human CD3 expressed on HEK293H cells (human) (chain, as listed by the source limits assumed, chain 1 of 4): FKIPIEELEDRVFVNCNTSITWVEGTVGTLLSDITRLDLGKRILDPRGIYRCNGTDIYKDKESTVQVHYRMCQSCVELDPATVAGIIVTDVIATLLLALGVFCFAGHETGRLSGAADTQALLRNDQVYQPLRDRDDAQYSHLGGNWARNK
Chain of human CD3 expressed on HEK293H cells (human) (chain, as listed by the source limits assumed, chain 2 of 4): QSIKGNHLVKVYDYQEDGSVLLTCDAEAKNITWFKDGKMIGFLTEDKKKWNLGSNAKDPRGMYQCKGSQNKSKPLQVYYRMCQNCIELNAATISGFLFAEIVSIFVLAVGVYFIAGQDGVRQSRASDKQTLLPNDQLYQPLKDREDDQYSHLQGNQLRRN
Chain of human CD3 expressed on HEK293H cells (human) (chain, as listed by the source limits assumed, chain 3 of 4): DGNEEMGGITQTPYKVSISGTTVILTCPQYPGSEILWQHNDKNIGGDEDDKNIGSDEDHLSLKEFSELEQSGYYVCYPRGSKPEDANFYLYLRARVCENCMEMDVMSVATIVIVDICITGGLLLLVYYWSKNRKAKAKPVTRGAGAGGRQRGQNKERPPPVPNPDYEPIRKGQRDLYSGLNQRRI
Chain of human CD3 expressed on HEK293H cells (human) (P20963 22-164 limits assumed, chain 4 of 4): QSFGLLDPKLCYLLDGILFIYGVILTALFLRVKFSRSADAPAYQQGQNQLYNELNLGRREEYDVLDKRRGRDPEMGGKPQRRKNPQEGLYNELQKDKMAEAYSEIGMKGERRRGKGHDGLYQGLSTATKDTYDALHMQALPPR
Chain of human TCR/CD3 complex on purified primary human T cells (human) (delta, as listed by the source limits assumed, form in doubt, chain 1 of 4): as the sequence (chain, as listed by the source limits assumed, chain 1 of 4) above
Chain of human TCR/CD3 complex on purified primary human T cells (human) (gamma, as listed by the source limits assumed, form in doubt, chain 2 of 4): as the sequence (chain, as listed by the source limits assumed, chain 2 of 4) above
Chain of human TCR/CD3 complex on purified primary human T cells (human) (epsilon, as listed by the source limits assumed, form in doubt, chain 3 of 4): as the sequence (chain, as listed by the source limits assumed, chain 3 of 4) above
Chain of human TCR/CD3 complex on purified primary human T cells (human) (zeta, as listed by the source limits assumed, form in doubt, chain 4 of 4): as the sequence (P20963 22-164 limits assumed, chain 4 of 4) above

B1: T0170011A10 (VHH, not shown: small tags and cut ends)
VHH: EVQLVESGGGLVQGGGSLSLSCAASGRTFSSYAMAWFRQPPGKEREFVASISWSGENTNYRNSVKGRFTISRDNAKNTVYLQMNSLKPEDTAVYYCAAKIAKTYPDNWYWTKSNNYNYWGQGTQVTVSS
The EC50 is the concentration at which the effect is half-maximal. Lower therefore signals higher potency in that assay. Turning to B1, the EC50 in experiment [1] and in experiment [2] was above 100 nM in each case. Also, the MCF at 1 µM/top in experiment [1] worked out at 3300 MCF; in experiment [2], 15900 MCF.

B2: T0170052G04 (VHH, not shown: small tags and cut ends)
VHH: EVQLVESGGGAVQPGGSLRLSCAASGIRISRNMMGWFRQAPGKQRDLVARITPGGDTYYVDSVKGRFSISKDNAKNTVYLQMNSLKPEDTAVYYCNSYSTLGSWGQGTQVTVSS
With B2, in experiment [1], the EC50 was above 100 nM and the MCF at 1 µM/top stood at 2850 MCF. In experiment [2], this molecule yielded an EC50 above 100 nM and an MCF at 1 µM/top of 4950 MCF.

B3: T017000016 (bispecific antibody)
chain: EVQLVESGGGLVQPGGSLRLSCTFSGGTFSSYTMGWFRQAPGKEREFVAEVRWGGVTTYSNSLKDRFSISEDSVKNAVYLQMNSLKPEDTAVYYCAAVRQMYMTVVPDYWGQGTLVTVSSGGGGSGGGGSGGGGSGGGGSGGGGSGGGGSGGGGSEVQLVESGGGSVQAGGSLRLSCAASGRTFSTNPMGWFRQVPGKERELIAAVRWADGNTFYADSVKGRFTISRDNAKKTVYLQMNSLKSEDTATYYCAAGRPWSAYHSPAEYVHWGQGTLVTVSSGAADYKDHDGDYKDHDIDYKDDDDKGAAHHHHHH
As to B3, the EC50 in experiment [3] was above 100 nM.
